Publication PMC2873218

Molecular target: microtubules
Assay: co-sedimentation

C. elegans KMN network containing KNL-1SD and the MIS-12SD complex, sequence (Q17635 whole entry, looked up): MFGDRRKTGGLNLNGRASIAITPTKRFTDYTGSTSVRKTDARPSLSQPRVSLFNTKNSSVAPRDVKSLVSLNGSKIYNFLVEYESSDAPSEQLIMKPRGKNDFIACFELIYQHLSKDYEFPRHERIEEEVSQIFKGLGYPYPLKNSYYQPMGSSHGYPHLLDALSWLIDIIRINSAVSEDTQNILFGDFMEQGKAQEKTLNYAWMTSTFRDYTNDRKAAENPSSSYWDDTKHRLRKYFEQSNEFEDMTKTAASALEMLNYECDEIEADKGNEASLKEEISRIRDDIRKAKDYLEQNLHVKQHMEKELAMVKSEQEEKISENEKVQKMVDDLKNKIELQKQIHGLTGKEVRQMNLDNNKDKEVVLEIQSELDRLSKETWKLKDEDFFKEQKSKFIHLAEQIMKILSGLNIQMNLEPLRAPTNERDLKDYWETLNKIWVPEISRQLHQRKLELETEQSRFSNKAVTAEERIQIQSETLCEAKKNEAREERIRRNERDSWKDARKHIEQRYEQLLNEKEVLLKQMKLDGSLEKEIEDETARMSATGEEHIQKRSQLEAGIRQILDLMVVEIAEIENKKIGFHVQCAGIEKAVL
C. elegans KMN network containing KNL-1SD and the MIS-12SD complex, sequence (P34278 whole entry, looked up): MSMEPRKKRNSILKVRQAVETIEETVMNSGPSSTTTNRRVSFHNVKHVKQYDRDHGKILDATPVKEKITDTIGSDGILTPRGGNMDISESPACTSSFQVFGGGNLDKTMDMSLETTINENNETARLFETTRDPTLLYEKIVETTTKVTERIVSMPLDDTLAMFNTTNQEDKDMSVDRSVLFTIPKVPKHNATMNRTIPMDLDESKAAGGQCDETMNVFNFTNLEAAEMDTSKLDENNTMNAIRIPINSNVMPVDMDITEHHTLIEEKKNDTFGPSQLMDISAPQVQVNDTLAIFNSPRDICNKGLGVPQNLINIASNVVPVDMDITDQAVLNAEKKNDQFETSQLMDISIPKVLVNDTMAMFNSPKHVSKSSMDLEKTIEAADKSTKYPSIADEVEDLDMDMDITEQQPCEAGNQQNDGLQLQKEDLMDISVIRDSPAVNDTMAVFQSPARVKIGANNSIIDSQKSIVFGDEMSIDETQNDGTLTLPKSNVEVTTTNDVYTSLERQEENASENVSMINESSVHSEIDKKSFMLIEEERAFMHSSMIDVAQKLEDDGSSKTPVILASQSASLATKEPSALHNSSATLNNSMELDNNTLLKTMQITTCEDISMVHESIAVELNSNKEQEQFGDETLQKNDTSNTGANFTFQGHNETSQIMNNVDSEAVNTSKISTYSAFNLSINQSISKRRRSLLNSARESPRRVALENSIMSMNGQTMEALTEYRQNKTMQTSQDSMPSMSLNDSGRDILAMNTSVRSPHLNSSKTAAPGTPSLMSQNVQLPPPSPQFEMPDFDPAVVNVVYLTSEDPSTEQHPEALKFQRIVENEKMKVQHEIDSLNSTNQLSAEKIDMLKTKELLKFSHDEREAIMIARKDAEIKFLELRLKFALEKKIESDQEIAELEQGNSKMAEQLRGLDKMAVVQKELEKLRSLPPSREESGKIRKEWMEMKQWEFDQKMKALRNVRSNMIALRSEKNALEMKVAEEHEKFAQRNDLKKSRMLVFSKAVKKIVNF
C. elegans KMN network containing KNL-1SD and the NDC-80SD complex, sequence (Q17635 whole entry, looked up): as the sequence (Q17635 whole entry, looked up) above
C. elegans KMN network containing KNL-1SD and the NDC-80SD complex, sequence (P34278 whole entry, looked up): as the sequence (P34278 whole entry, looked up) above
microtubules, sequence (P68363 whole entry, chain 1 of 2): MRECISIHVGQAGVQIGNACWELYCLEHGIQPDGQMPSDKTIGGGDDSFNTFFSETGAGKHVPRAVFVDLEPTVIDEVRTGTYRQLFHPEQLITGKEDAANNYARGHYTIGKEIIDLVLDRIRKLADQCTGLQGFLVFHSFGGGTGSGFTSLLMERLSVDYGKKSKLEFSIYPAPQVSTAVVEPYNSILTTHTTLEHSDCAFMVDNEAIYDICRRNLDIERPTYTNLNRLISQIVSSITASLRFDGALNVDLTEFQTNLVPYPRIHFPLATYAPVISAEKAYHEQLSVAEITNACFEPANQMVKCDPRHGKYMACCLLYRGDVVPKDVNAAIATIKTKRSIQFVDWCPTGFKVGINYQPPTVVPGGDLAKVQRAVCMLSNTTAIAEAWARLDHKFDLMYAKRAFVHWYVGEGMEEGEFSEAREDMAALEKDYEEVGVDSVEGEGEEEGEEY
microtubules, sequence (A8K068 whole entry, chain 2 of 2, further chain): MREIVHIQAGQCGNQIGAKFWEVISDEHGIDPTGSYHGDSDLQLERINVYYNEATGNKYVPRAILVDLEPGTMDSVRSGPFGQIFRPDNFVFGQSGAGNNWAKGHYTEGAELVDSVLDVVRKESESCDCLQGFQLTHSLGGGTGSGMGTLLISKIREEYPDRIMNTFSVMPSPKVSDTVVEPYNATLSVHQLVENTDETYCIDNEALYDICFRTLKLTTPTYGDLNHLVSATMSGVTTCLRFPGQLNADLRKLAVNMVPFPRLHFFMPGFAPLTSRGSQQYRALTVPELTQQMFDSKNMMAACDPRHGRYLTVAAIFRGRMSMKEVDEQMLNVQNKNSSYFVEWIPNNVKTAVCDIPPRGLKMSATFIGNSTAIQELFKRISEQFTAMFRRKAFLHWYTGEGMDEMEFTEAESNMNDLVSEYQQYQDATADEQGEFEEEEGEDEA

Row | Kd | Substance
1 | 2.1 µM | C. elegans KMN network containing KNL-1SD (from UniProt P34278 1-1010; Q17635 1-590) (complex)
2 | 4.9 µM | C. elegans KMN network containing KNL-1SD and the NDC-80SD complex (from UniProt P34278 1-1010; Q17635 1-590)
3 | 5.3 µM | C. elegans KMN network containing KNL-1SD and the MIS-12SD complex (from UniProt P34278 1-1010; Q17635 1-590)
